Consider three molecules from patent US20130272958A1 (NATIONAL RESEARCH COUNCIL OF CANADA, published 2013).

Assay [1] deals with recombinant CEACAM6 N-terminal domain (expressed in E. coli) (Homo sapiens (Human)) (UniProt P40199). In words: SPR (Biacore 3000), 9A6 immobilised, CEACAM6 recombinant protein injected at 0.1-200 nM. Background: In SPR one partner is held on a chip, and binding of the other changes the refractive index at the surface.
Assay [2] concerns the target T1, recombinant CEACAM6 N-terminal domain (expressed in E. coli) (Homo sapiens (Human), UniProt P40199 35-142, limits assumed).
T1 construct: also called CEACAM6 N-domain; recombinant CEACAM6 protein (N-domain)
T1 sequence: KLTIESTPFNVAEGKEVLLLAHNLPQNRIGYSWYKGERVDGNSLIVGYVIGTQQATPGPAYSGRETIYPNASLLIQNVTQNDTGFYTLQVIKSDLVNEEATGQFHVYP
The assay is described as follows: SPR (Biacore 3000), CEACAM6 immobilised, 2A3 injected at 1-60 nM, 1:1 Langmuir fit.
Protocol: Immobilizations were performed with an amine-coupling kit (GE Healthcare) and carried out at 50 μg/ml CEACAM6 in 10 mM Acetate, pH 4 (GE Healthcare) and 50 μg/ml of Ovalbumin in 10 mM Acetate, pH 4.5. 120 μL of the sdAb at concentration of 1 nM to 60 nM were injected over the surfaces at a flow rate of 40 μl/min. Analyses were carried out at room temperature in HBS-EP, 10 mM HEPES pH 7.4, 150 mM NaCl, 3 mM EDTA and 0.005% surfactant P20 (GE Healthcare). Regeneration was performed with running buffer (HBS-EP). Data were analyzed with BIAevaluation software 4.1.

Assay [3] concerns the target T2, CEACAM6 peptide NRIGYSWYKGERVDG
T2 construct: Spot on a JPT peptide array (45 peptides, 15 residues long, 10 overlapping)
T2 peptide: NRIGYSWYKGERVDG
The assay is described as follows: peptide array membrane, anti-llama detection.

Assay [4] addresses T3, CEACAM6 peptide HNLPQNRIGYSWYKG
T3 construct: Spot on a JPT peptide array (45 peptides, 15 residues long, 10 overlapping)
T3 peptide: HNLPQNRIGYSWYKG
The assay is described as follows: peptide array membrane, anti-llama detection.

Assay [5] addresses T4, native CEACAM6 expressed by human tumor cells (BxPC3, LS174T, A549) (human, UniProt P40199 35-320).
T4 sequence: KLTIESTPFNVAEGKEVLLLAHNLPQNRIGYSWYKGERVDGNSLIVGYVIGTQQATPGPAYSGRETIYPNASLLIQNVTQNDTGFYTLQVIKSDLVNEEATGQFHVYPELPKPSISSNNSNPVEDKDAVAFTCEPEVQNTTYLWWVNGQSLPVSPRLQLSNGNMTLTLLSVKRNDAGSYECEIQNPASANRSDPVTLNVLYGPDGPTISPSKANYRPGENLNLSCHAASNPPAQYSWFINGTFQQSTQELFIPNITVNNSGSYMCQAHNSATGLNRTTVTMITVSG
In words: cell-based or functional assay.

Assay [6] addresses T1, recombinant CEACAM6 N-terminal domain …. In words: SPR (Biacore 3000), 2A3-Fc immobilised, CEACAM6 recombinant protein injected at 0.1-200 nM.
Protocol: One hundred twenty microliters of CEACAM6 recombinant protein at concentration of 0.1 nM to 200 nM was injected over the surfaces at a flow rate of 40 μl min-1. Analyses were carried out at room temperature in HBS-EP comprising 10 mM HEPES pH 7.4, 150 mM NaCl, 3 mM EDTA and 0.005% surfactant P20 (GE Healthcare). Regeneration was performed with HBS-EP used as running buffer. The data were analyzed by using BIAevaluation software 4.1.

One may read the Kd as a measure of binding affinity in units of concentration. For “anti-CEACAM6 mouse monoclonal antibody 9A6 (Santa Cruz Biotechnology)”, the Kd in assay [1] is 8 nM.

B1: sdAb 2A3 (engineered, with c-myc and His tags) (VHH)
VHH: QVKLEESGGGLVQAGGSLRLSCRTSGRTNSVYTMGWFRQAPGKEREFVAQIMWGAGTNTHYADSVKGRFTISRDSAESTVYLQMNSLKPEDTAVYYCAANRGIPIAGRQYDYWGQGTQVTVSS
modifications: FITC-labelled in the staining and flow cytometry assays
notes: Llama VHH expressed in the E. coli periplasm and purified by IMAC; monomer by size exclusion; also called 2A3 sdAb; FITC-2A3
Broadly, the koff is the first-order rate constant of dissociation. For orientation: kon means a measure of how fast the partners come together. Consider B1, for which, in assay [2], the Kd amounted to 4.7 nM, the koff stood at 0.0053 s⁻¹ and the kon came to 1.1e+06 M⁻¹ s⁻¹. The binding result in assay [3] was “binds”. Moreover, in assay [4], the binding result is “binds”. In assay [5], the “BxPC3 cell proliferation (MTT assay), IC50” value was 6500 nM.

B2: 2A3-Fc (2A3 sdAb fused to mouse Fc2b fragment) (Fc fusion)
chain: QVKLEESGGGLVQAGGSLRLSCRTSGRTNSVYTMGWFRQAPGKEREFVAQIMWGAGTNTHYADSVKGRFTISRDSAESTVYLQMNSLKPEDTAVYYCAANRGIPIAGRQYDYWGQGTQVTVSS
modifications: FITC, Alexa Fluor 594 or 64Cu-DOTA label in some assays
notes: Expressed in 293-6E cells and purified on Protein G; about 80 kDa, bivalent; also called 2A3-mFc; 2A3mFc; not shown: mouse Fc2b fragment (Fc of mouse IgG2b) from vector pTT5
In the case of B2, the Kd in assay [6] is 13 nM. Besides, the “BxPC3 cell proliferation (MTT assay), IC50” value in assay [5] came to 8000 nM.
